Test results as given in the DeepSol protein solubility set.

Assay: soluble on expression in E. coli; label from the status in PepcDB or PDB records

Row | Sequence | soluble on expression in E. coli
1 | MHENQQPQTEAFELSAAEREAIEHEMHHYEDPRAASIEALKIVQKQRGWVPDGAIHAIADVLGIPASDVEGVATFYSQIFRQPVGRHVIRYCDSVVCHINGYQGIQAALEKKLNIKPGQTTFDGRFTLLPTCCLGNCDKGPNMMIDEDTHAHLTPEAIPELLERYK | not soluble
2 | AASQSTPWGIKAIYNNSNLTSTSGGAGINIAVLDTGVNTNHPDLSNNVEQCKDFTVGTNFTDNSCTDRQGHGTHVAGSALANGGTGSGVYGVAPEADLWAYKVLGDDGSGYADDIAEAIRHAGDQATALNTKVVINMSLGSSGESSLITNAVDYAYDKGVLIIAAAGNSGPKPGSIGYPGALVNAVAVAALENTIQNGTYRVADFSSRGHKRTAGDYVIQKGDVEISAPGAAVYSTWFDGGYATISGTSMASPHAAGLAAKIWAQSPAASNVDVRGELQTRASVNDILSGNSAGSGDDIASGFGFAKVQ | soluble
3 | MKGRIELGDVTPHNIKQLKRLNQVIFPVSYNDKFYKDVLEVGELAKLAYFNDIAVGAVCCRVDHSQNQKRLYIMTLGCLAPYRRLGIGTKMLNHVLNICGWMDGWMDGWMDGRASEIVEIPCLFLGYQFPKQSKSKLRSLVLSTFTLMDKLQRALAKRRGHK | not soluble
4 | MSLLSAFDTTAQRLGTASQNIEKDFWVCWTLDALFNGLSERGPRLLFKGGTSLSKGFGLINRFSEDIDVTVFRDDIGEPATIEELNVLSRNKRRARLDAIKEACQAYINGPLRAELTAILQKRLQAAGLSAGDARVEADGADSDGQTLLIWYPAATPRSDYVRAAIKIESGAKSALDPNSEVPIKAYVDDDLPALDLTVPAVRTVDPERTFWDKVVILHGLRRWFDKRGELRGGGQRVSRHYYDLHRLTAAPVGAAAIDDAALGADCVAHARMFFNRPDYDLATAAPGSFALAPHDEMIEQLRTDYRAMQGMIFGDPPSFEAVLKSINSLETQLNKDIANEGGPTREGHHHHHH | soluble
5 | MPLTFAHSFADAVPSLSVPWRAEQWPDPRIIVFNHELGQELGIDEASLLSNITQQGHAQAYSGHQFGQFNPLLGDGRALVLGDCAQTNAPHGQFEISLKGSGPTPFARRGDGRATLGPMLREYLISEALHGLGIPTTRSLAVITTGTDVQRERLLPGAVVVRVAQNHLRVGSVQCAAMRDDDSLAALVRYALSSHEDGVSDAEAAGLLLRRVSTSQAKLVAQWMRFGFVHGVMNTDNVTLSGQTIDFGPCAFIDSFHPQAVFSSIDSHGRYSFGRQPSIMGWNIARLAEALLPLMSIDEARNIVHEFPDMYRRSWLDEMADAVGISPDDDHAAGVLDDLVALLDVHRPDYAQFMRSLSDGTTVSLFPWAQQWEAEVSSLRVAAPRNPVYVPRNYLVEDALEHAMNADMSVFSLLVEAGKNPYLREKRFEKLENPAPETWQDYVTYCGT | not soluble
6 | METIIHKIRLFDVAQADAFEFWVQNVDYATCPDLPSVVRFDVHRASLQANAPYHYVEVIKITDRAAFDADMETSTFAGLVQAFSRMAEVVEELAGEQLGSGYAAG | soluble
7 | VASKAIFYHAGCPVCVSAEQAVANAIDPSKYTVEIVHLGTDKARIAEAEKAGVKSVPALVIDGAAFHINFGAGIDDLKGS | soluble
8 | MDFESNGAMMEYCKSTGRTYCAFSIQQSSKLLGTVVLELFTDIAPATCANFIKYIKDGYQGTPLHRIVPNGWVQGGDIVDGSGKGDPGFVLPDETYSVKHDAPGVLGMATGGQPHTANTQFYISLSPLPFLDGKRVAFGRVLNKQSLENLLALQTLPTFQNERPVPDVVIASCHVIYNPNS | not soluble
9 | MSLQEPFSQLESEIQVLKSHIANISGLSVPKNVLKNADGSTLKSLSEASLKVIEKTIRITAHAVNLKLRIETDIANLKNQIKLLTETKEQQDALSKALEASSTLVKLEDRHERLTERIQALEKKIDEAIRQLSYKESMPLSKEEKLWIREVNGINALLNNAGEDSLALKIEDLKVQVTALSQNEHSANEHLTDAEIQKRQNSIILAKLSLWLQNDLEKLDEVKQSVTDCIRRLREGHHHHHH | soluble
10 | MAHHHHHHMGKYAVVVIGPAGSGKSTLCTVVAEHYATKGRSTHICNFDPAAEDLPYDPSIDIRELISLEDAMEGKGLGPNGGLVFCMEYLLGQGEVWLCDQLGDHEEDFIIVDMPGQLEVLSHIPAVPGFVRLLERSGFHVVVLFLLDALAATADAGKFVSGCTFALSCMVCFECPFMNVLTKCDLLPPAIREEALDHFCTCDFDYLNTKPLPERWREMVRTLAAVIFDFNLVTFRPMDNTDVAYVGNLCYLIDEALQVVDDAEVNDRDLPDASEAGEAVEDTMDWKHY | not soluble
11 | MAVPQLYYFTIRGFGEYIRLLFLDNGIKFEDIRFDYEGNEWQEFKKGMLLGQLPCLKVDGQEIVQTGAIMRHLGRVHGLNGSNEQEATFLDMFFEGVRDVRMKYVRYIYYDEGTREDCVNKTIPEALVKLEELFKAHSGDFIIGNKISYADYILFEELDVYHVLDANILDKFPTLKSFWERMWKRPNLNAYLEKRKADKVWINAIEKGMN | soluble
12 | LAIPEKRLSNNIILTKLKIALNLQAEQIISLLESVDFRISKPELSAFSRKVDHQHYRECKDQVLRNLLHAIDKTYHV | not soluble
13 | MSLATPSFGNSSPQLTFTHVANFMNDAAADVSAVDAKQLAQIRQFLKANKTNLIESLNTIRQNVTSSGDHNKLRSTIANLLQINVDNDPFFAQSEDLSHAVEFFMSERSSRLHIVYSLLVNPDIDLETYSFIDNDRFNVVGKLISIISSVIQNYDIITASSLAHDYNNDQDMFTIVSLVQLKKFSDLKFILQILQILNLMILNTKVPVDIVNQWFLQYQNQFVEFCRNINSTDKSIDTSSLQLYKFQNFQDLSYLSETLISRISSLFTITTILILGLNTSIAQFDIQSPLYMDTETFDTVNSALENDVATNIVNEDPIFHPMIHYSWSFILYYRRALQSSESFDDSDITKFALFAESHDVLQKLNTLSEILSFDPVYTTVITVFLEFSLNFIPITASTSRVFAKIISKAPEQFIENFLTNDTFEKKLSIIKAKLPLLNESLIPLINLALIDTEFANFELKDICSFAVTKSSLNDLDYDLIADTITNSSSSSDIIVPDLIELKSDLLVAPPLENENSNCLLSIPKSTKGKILTIKQQQQQQQNGQQPPTTSNLIIFLYKFNGWSLVGRILQNLLHSYMEKGTQLDDLQHELMISIIKLVTNVVDPKTSIEKSSEILSYLSNSLDTSASTINGASIIQVIFEIFEISLQRKDYTSIVQCCEFMTMLTPNYLHLVSSYLNKSDLLDKYGKTGLSNMILGSVELSTGDYTFTIQLLKLTKVFIRESLSLKNIHISKRSKIDIINKLILHAIHIFESYYNWKYNNFLQKFEIAFHLTLIFYDVLHDVFTINPHQKDQLIISSSANKLLQLFLTPMDSIDLAPNTLTNILISPLNTTTKILGDKILGNLYSKVMNNSFKLCTLLISIRGSNRDLKPSNLEKLLFINSSKLVDVYTLPSYVHFKVQIIELLSYLVEAPWNDDYPFLLSFLGEAKSMAFLKEVLSDLSSPVQDWNLLRSLYIFFTTLLESKQDGLSILFLTGQFASNKKINDESSIDKKSSILTVLQKNSLLLDSTPEEVSCKLLETITYVLNTWTNSKIFIKDPKFVNSLLAKLKDSKKLEGHHHHHH | not soluble
14 | MGHHHHHHSHPRNSCSLHYIHPYQPNEYLKALVAVGEICQDYDSDKMFPAFGFGARIPPEYTVSHDFAINFNEDNPECAGIQGVVEAYQSCLPKLQLYGPTNIAPIIQKVAKSASEETNTKEASQYFILLILTDGVITDMADTREAIVHASHLPMSVIIVGVGNADFSDMQMLDGDDGILRSPKGEPVLRDIVQFVPFRNFKHASPAALAKSVLAEVPNQVVDYYNGKGIKPKCSSEMYESSRTLAP | not soluble
15 | PVSQPDAPGHQRKVVSWIDVYTRATCQPREVVVPLTVELMGTVAKQLVPSCVTVQRCGGCCPDDGLECVPTGQHQVRMQILMIRYPSSQLGEMSLEEHSQCECRPKKKDSAVKPDSPRPLCPRCTQHHQRPDPRTCRCRCRRRSFLRCQGRGLELNPDTCRCRKLRR | soluble
